Data as given in paper PMC3696110, “Hsp70 Oligomerization Is Mediated by an Interaction between the Interdomain Linker and the Substrate-Binding Domain” (PLoS ONE, 2013).
“And” between values parts separate entries of the source, which are not always exact repeats. Equal entries are not always repeated.

Experiments:
Type in all cases: physicochemical, human
[1] = Tryptophan (W580) fluorescence emission; conditions: W580, excitation 295 nm
Method: Steady-state tryptophan fluorescence emission spectra of native, thermally denatured and refolded proteins were recorded from 300 to 400 nm, selectively exciting the only tryptophan residue in the SBD (W580) at 295 nm, using a Cary Eclipse spectrofluorimeter (Varian, Palo Alto, CA, USA). Excitation and emission band-passes were set to 5 nm each.

[2] = Thermal denaturation monitored by far-UV CD
Method: Protein structural stability was analyzed by monitoring the CD signal at 222 nm upon thermal denaturation. Thermal runs were performed from 5 to 90 °C at a rate of 1 °C. min^-1. Data points were acquired every 0.1 °C with a response time of 2 s and a bandwidth of […]. After thermal denaturation, each protein sample was cooled to the starting temperature, and a second denaturation curve recorded in order to analyse the degree of reversibility of the denaturation process. Analysis of the thermal unfolding curves was performed assuming a three-state unfolding model.

[3] = Secondary structure content from far-UV CD; conditions: K2D software; 20 µM protein, 7 mM Tris pH 7.4, 170 mM KCl, 5 mM MgCl2; 25 °C
Method: Far-UV CD spectra for all protein variants were recorded using a Jasco J-810 spectropolarimeter equipped with a Peltier holder, using a 0.1 cm path length cuvette. Typically, samples contained 20 µM protein in 7 mM Tris buffer at pH 7.4, containing 170 mM KCl and 5 mM MgCl2. The far-UV CD spectra of all the variants in their native, thermally denatured and refolded states were recorded from 198 to 250 nm, and the spectrum of the buffer was systematically subtracted from the spectra of all protein samples. The secondary structure content was estimated from the far-UV CD spectrum for each protein variant using K2D software.

SBD641: truncated human Hsp70 (384-641), full-length SBD with interdomain linker
Wavelength of fluorescence emission maximum, native [1]: 340 nm | Wavelength of fluorescence emission maximum, refolded [1]: 345 nm | Wavelength of fluorescence emission maximum, thermally denatured [1]: 350 nm | ∆Hm, 1st transition ([2]; CD 222 nm, 20 µM protein, 7 mM Tris pH 7.4, 170 mM KCl, 5 mM MgCl2, three-state fit (C-term two-state), SE of fit): 49.4 ± 3.3 kcal/mol | ∆Hm, 2nd transition ([2]; CD 222 nm, 20 µM protein, 7 mM Tris pH 7.4, 170 mM KCl, 5 mM MgCl2, three-state fit, SE of fit): 53.3 ± 1.2 kcal/mol | Tm, 1st transition ([2]; CD 222 nm, 5 to 90 °C at 1 °C/min, 20 µM protein, 7 mM Tris pH 7.4, 170 mM KCl, 5 mM MgCl2, three-state fit (C-term two-state), SE of fit): 45.6 ± 0.4 °C | Tm, 2nd transition ([2]; CD 222 nm, 5 to 90 °C at 1 °C/min, 20 µM protein, 7 mM Tris pH 7.4, 170 mM KCl, 5 mM MgCl2, three-state fit, SE of fit): 73.1 ± 0.1 °C and 73.1 ± 0.2 °C | Degree of irreversibility of overall protein thermal denaturation ([2]; far-UV CD): ca. 20% | Reversibility of thermal unfolding ([2]; far-UV CD, second denaturation curve after cooling): is not | Random-coil content estimated from far-UV CD [3]: 49% | α-helix content estimated from far-UV CD [3]: 33% | β-sheet content estimated from far-UV CD [3]: 18%
